Experimental data published in the RNAGym collection of RNA variant scans (doi:10.7554/elife.90254).

B1: LINE1-mini (parent)
chain: GGCAGAGCUCAACACAGCGUGGCAAAGUGGCUGUGGCUAGACUGCC

Variants of: B1
Assay: self-cleavage, relative activity (ratio to wild type); higher = more cleavage; in vitro, sequencing; the parent is a self-cleaving ribozyme

Variant | self-cleavage
GGCAGAGCUCAACACAGCGUGGCAAAGUGGCUGGAGCUAGACUGCC | 0.06
GGCAGAACUCAACACAGCGGGGCAAAGUGGCUGUGGCUAGACUGCC | 0.06
GGCAGAGCUCAACUCAGCGUGGCAAAGUGGCUGUGGCUAGUCUGCC | 0.25
GGCAGAGCUCAACACAGCGUGGCAAAGUGGCUGUGGCUCGACUGCU | 0.2
GCCAGAGCUCAACACAGCGUGGCAAAGUGGCUGUGGUUAGACUGCC | 0.06
GCCAGAGCUCAACACAGCGUGGCACAGUGGCUGUGGCUAGACUGCC | 0.15
GGCAGUGCUCAACACAGCGUGGCAAAGUGGCUGAGGCUAGACUGCC | 0.06
GGCUGAGCUCAACAGAGCGUGGCAAAGUGGCUGUGGCUAGACUGCC | 0.06
GGCACAGCUCAACACAGCGUGGCAAAGUGGCUGUGGCUAGACUGGC | 0.05
GGCAGAGCUCAACACAGCGUGGCAAACUGGCUGUGGCUAGAGUGCC | 0.09
GGCAGAGCUCAACACAGUGUGGCCAAGUGGCUGUGGCUAGACUGCC | 0.39
GGCAGAGCUCAACACAACGUGGCAAAGUGGCUGUUGCUAGACUGCC | 0.05
GGCUGAGCUCAACACAGCGUGGCAAAGUGGCUGUGGCUACACUGCC | 0.07
GGCAGAGCUCGACACAGCGUGGCAAAGUUGCUGUGGCUAGACUGCC | 0.03
UGCAGAGCUCAACACAGCGUGGCAAAGUGGCUGUGGAUAGACUGCC | 0.06
GGAAGAGCUCAACACAGCGUGGCAAAGUGGCUGUGGCUAGAUUGCC | 0.26
GGCAGAGCUAAACAUAGCGUGGCAAAGUGGCUGUGGCUAGACUGCC | 0.08
GGCAGAGCUCAACACAGCGUGGCAAAGUGGCUGUGGCUAGCCGGCC | 0.06
GGCAGAGCACAUCACAGCGUGGCAAAGUGGCUGUGGCUAGACUGCC | 0.13
GGCGGAGCUCAACACAGCGUGGCAAAGUGGCUGUGGCUAGACCGCC | 1.34
GGCAGAGCUCAACACAGAGUGGCAAAGUGGAUGUGGCUAGACUGCC | 0.16
GGCAGAGCUGAACACAGCGUGGCAAAGUCGCUGUGGCUAGACUGCC | 0.04
GGCAGAGCUCACCACAGCGUGGAAAAGUGGCUGUGGCUAGACUGCC | 0.02

Variant | self-cleavage
GGCAGAGCUCAACACAGCGUGGCAAAGUGGCUGUGACUAGCCUGCC | 0.05
GGCAGAGCUCAACACAGCGUCGCAGAGUGGCUGUGGCUAGACUGCC | 0.94
UGCAGAGCUCAACACCGCGUGGCAAAGUGGCUGUGGCUAGACUGCC | 0.08
GGCAGAGCUCAACAGAGCGAGGCAAAGUGGCUGUGGCUAGACUGCC | 0.09
GGCGGAGCUCAACACAGCGUGGCAAAGUGCCUGUGGCUAGACUGCC | 0.91
GGCAUAGCUCAACCCAGCGUGGCAAAGUGGCUGUGGCUAGACUGCC | 0.06
GGCAGAGCUCAACGCAGCGUGGCAAAGUGGCUGUGGCUAGACGGCC | 0.11
GGCAGAGAUCAACACAGCGUGGCUAAGUGGCUGUGGCUAGACUGCC | 0.34
GGCAGAGCUCAACACAGCGUGGCAAAUUGGCGGUGGCUAGACUGCC | 0.16
GGCGGAGCUCAACACAGCGUGGCAAAGUGGCUGUGGCUAAACUGCC | 0.13
GGCAGAGCUCAACACAGCGUGGUAAAGUGCCUGUGGCUAGACUGCC | 2.32
GGCCGAGCUCAACACAGCGUGGCAAAGUGGCUGUAGCUAGACUGCC | 0.17
GGCAGAGCUCAACACAGCGAGGCAAAGUGGCUGUGGCUACACUGCC | 0.06
GGCAGAGCUCUACACAGGGUGGCAAAGUGGCUGUGGCUAGACUGCC | 0.04
GGCAGAGCUCAACACAGCGUGGCAAAGUGGCUGUGGCUAGUCUGCA | 0.33
GGCUGAGCUCAACACCGCGUGGCAAAGUGGCUGUGGCUAGACUGCC | 0.19
AGCAGAGCUCAAUACAGCGUGGCAAAGUGGCUGUGGCUAGACUGCC | 0.2
GGCAGAGCUCAACACAGCGUGGCAAAGGGGCUGCGGCUAGACUGCC | 0.11
GGCAGAGCUCUACACAGCGUGGCAAAGUUGCUGUGGCUAGACUGCC | 0.17
GGCAGAGCUCAACAUAGCGUGGUAAAGUGGCUGUGGCUAGACUGCC | 1.91
CGCAGAGCUCAACACAGCGUGGCAAAGUGGCUGUGGCUAGACAGCC | 0.02
GGCAGAGCUCAACACAGCGUGGCCAAGUGGCUGUAGCUAGACUGCC | 0.09
GGCAGAGCUCAACACAGCGUGGCAAAGUGGCUGUGCCUAGACUGCG | 0.08

Variant | self-cleavage
GGCAGAGCUCAACACAGCGUUGCAAAGUGGCUGUGGAUAGACUGCC | 0.09
GACAGAGCUCAACACAGCGUGGCAAAGUGUCUGUGGCUAGACUGCC | 1.4
GGCAGAGCUCAACACAGCGUGGCAAAGUGGAUGUGGCUAGACUUCC | 0.04
GGCAGAGCUCAACACAGCGUGGCAACCUGGCUGUGGCUAGACUGCC | 0.9
GGCAGAGCUCAACACAGCGUGGCGAAGUGGCUGUGCCUAGACUGCC | 0.11
GGCAGAGCUCAACACGGCGUAGCAAAGUGGCUGUGGCUAGACUGCC | 0.7
GGCAGAGCUCAAAACAGCGUGGCAAAGUGGCUUUGGCUAGACUGCC | 0.05
GGCAGAACUCAACACCGCGUGGCAAAGUGGCUGUGGCUAGACUGCC | 0.13
GGCAGAGCUCAACACAGCGUGGCAAAGUGGCUGUUGCUAGGCUGCC | 0.08
GGCAGAGCUCAACACAGAGUAGCAAAGUGGCUGUGGCUAGACUGCC | 1.86
GGCAGAACUCAACACAGCGUGGCAAAGUGGCUGUGACUAGACUGCC | 0.43
AGCAGAGCUCAACACAGCGUGGCAAAGUGGCUGUGGCUAGGCUGCC | 0.26
GGCAGAGCUCAACACAGCGUGGCACAGUGGCUGUGGUUAGACUGCC | 0.06
GGCAGAUCUCAACACAGCGUGGCAAAGUGGCUGUGGCUAGCCUGCC | 0.24
GGCAGAUCUCAACACAGCGUGGCAAAGUGGCUGUGGCUAGUCUGCC | 0.21
GGCAGAGCUCAGCACAACGUGGCAAAGUGGCUGUGGCUAGACUGCC | 0.02
GGCAGAGCUAAACACAGCGUGGCAAAGUGGCUGUAGCUAGACUGCC | 0.04
GGCAGAGCUUAACACAGCGCGGCAAAGUGGCUGUGGCUAGACUGCC | 0.28
UGCAGAGCGCAACACAGCGUGGCAAAGUGGCUGUGGCUAGACUGCC | 0.03
GGCAGAGCUCAACACAGCGUGGCAACGAGGCUGUGGCUAGACUGCC | 0.53
GGCAGAGCUCAACACAGCAUGGCAAAGUGACUGUGGCUAGACUGCC | 1.99
GGCAGUGCUCAACACAGCGUAGCAAAGUGGCUGUGGCUAGACUGCC | 2.16
GGCAGAGCUCAACACAGCGUGGCAAAGUUGCUGUGGCUAGACUGAC | 0.63

Variant | self-cleavage
GGCAGAGCUCAACACAGCGUGGCUAAGUGGCUGUGGCUAGACUGCU | 1.09
GGCAGGACUCAACACAGCGUGGCAAAGUGGCUGUGGCUAGACUGCC | 0.11
GGCAGAGCUCAACACAGCGUGGCAACGUGGUUGUGGCUAGACUGCC | 0.17
GGCAGAGCUCAACACAGCGUGGCAAAGUGGCUGUGGCCAGAAUGCC | 0.07
GGCUGAGCUCAACACAGCGUGGCAAAGUGGCUGUGGCUAGACAGCC | 0.67
GGCAGAGCUCAACACAGCAUAGCAAAGUGGCUGUGGCUAGACUGCC | 2.83
GGCAGAGGUCAACACAGCGUGGCAAAGUGGCUGUGGCUAGACUGCA | 0.05
GGCAGAGCUCAACACAGCGUGGCAUAGUGGCUGUGGCUAUACUGCC | 0.14
GGCGGAGCUCAACACAGCGUGGUAAAGUGGCUGUGGCUAGACUGCC | 0.5
GGCAGAGCUCAACACAGCUUGGCAAAGUGGCAGUGGCUAGACUGCC | 0.09
GGCAGAGCUCAACACCGCGUGGCAAACUGGCUGUGGCUAGACUGCC | 0.15
GGCAGAGCUCAACACAGCGUGGCAAAGUGGCCGUGGCUCGACUGCC | 0.08
GGAAGAGCUCAACACAGAGUGGCAAAGUGGCUGUGGCUAGACUGCC | 0.18
GGCAGAGCUCAACACAGCGUGGCAAAGUGGCUGUGGGAAGACUGCC | 0.03
GGCAGAGCUCAACUCAGCGUGGCAAAGUGGCUGUGACUAGACUGCC | 0.15
GGCAGAGAUCAACACAGCGUGGCAAAGUGGCGGUGGCUAGACUGCC | 0.45
GGCAAAGCUCAACACAGCGUGGCAAUGUGGCUGUGGCUAGACUGCC | 0.19
GGCAGAGCUCAACAGAGCGUGGGAAAGUGGCUGUGGCUAGACUGCC | 0.12
GGCAGAGCUCAAGACAGCGUGGCCAAGUGGCUGUGGCUAGACUGCC | 0.07
GGCAGAUCUCAACACAGCGUGGCAAAGUGGGUGUGGCUAGACUGCC | 0.06
GGCAGAGCUCAACACAGCGUGGCAAAGUGGCUGUAGCUAGACGGCC | 0.03
GGCAGAGCUCAACACAGCGUGGCACAGUCGCUGUGGCUAGACUGCC | 0.56
GGCAGAGCUCAACACAGCGGGGCAAAGUGGCUGUUGCUAGACUGCC | 0.12

Variant | self-cleavage
GGAAGAGCUCAACACAGCGUGGCCAAGUGGCUGUGGCUAGACUGCC | 0.27
GGCAGAGCUCAACAAAGCGUGGCAAAGUGCCUGUGGCUAGACUGCC | 0.05
GGCAGAGCUCAACACAGCGUAGCUAAGUGGCUGUGGCUAGACUGCC | 2.52
GGCAGAGCUCAACAGAGCGUGGCAAAGUGGCUGUGGCUAGACAGCC | 0.02
AGCAGAGCUCAACACAGCGUGGCAAAGUGGCUGUGGCUAGACGGCC | 0.02
GGCAGAGCUCAACACAGCGUGGCAAAGUGGCUGUCGCUAGACUGAC | 0.06
GGCUGAGCUCAACACAGCGUGCCAAAGUGGCUGUGGCUAGACUGCC | 0.08
GCCAGAUCUCAACACAGCGUGGCAAAGUGGCUGUGGCUAGACUGCC | 0.28
GGCAGAGCUCAACAGAGCGUGGCAAAGUGGCUGUUGCUAGACUGCC | 0.03
GGCAGAGCUCAACACAGCGUGGCAAAUUGGCUGUGGCUAGACUACC | 0.43
GGCAGAGCUCAACACAGCGUGGCAAAGUGGCUGUAGCUUGACUGCC | 0.12
GGCAGAGCUAAACACAGCGUGGCAAAGUGGCCGUGGCUAGACUGCC | 0.03
GGCAGAGCUCAACACAGCGUUGCAAAGUGGCUGUGGCUAGACUGCU | 1.13
GGCAGAGCUGAACACAGCGUGGCAAAGUGGCUGUGGCUAGACUGCU | 0.06
GGCAGUGCUCAACACAGCGUGGCAAAAUGGCUGUGGCUAGACUGCC | 0.42
GGCAGAGCUCAACACAGCGUUGCAAAGUGGCUGUGGCUAAACUGCC | 0.29
GGGAGAGCUCAACACAGCGUGGCAAAGUGGCUGUGGCUAGACUGCA | 0.36
GGCAGAGCACAACACAGCGUGGCAAAGUGGCUGUGGCUAGCCUGCC | 0.08
GGCAGAGCUCAACACAGCGUCGCAAAGUGGCUGUGUCUAGACUGCC | 0.03
GGCAGAGCUCAACACAGCGUGGCAAAGUUGCUGUGACUAGACUGCC | 0.17
